Assay results taken from patent US20220204643A1 (published 2022).

T1: glucuronidase, beta pseudogene (human)
T1 construct: on protein array; also called BC025996.2_frag
T1 chain: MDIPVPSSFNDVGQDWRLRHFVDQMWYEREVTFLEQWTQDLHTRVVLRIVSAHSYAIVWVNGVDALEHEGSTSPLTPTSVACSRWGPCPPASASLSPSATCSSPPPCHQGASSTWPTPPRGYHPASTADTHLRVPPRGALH

T2: oxidation resistance 1, transcript variant 1 (human, UniProt Q8N573 90-874, limits assumed)
T2 construct: on protein array; also called OXR1
T2 sequence: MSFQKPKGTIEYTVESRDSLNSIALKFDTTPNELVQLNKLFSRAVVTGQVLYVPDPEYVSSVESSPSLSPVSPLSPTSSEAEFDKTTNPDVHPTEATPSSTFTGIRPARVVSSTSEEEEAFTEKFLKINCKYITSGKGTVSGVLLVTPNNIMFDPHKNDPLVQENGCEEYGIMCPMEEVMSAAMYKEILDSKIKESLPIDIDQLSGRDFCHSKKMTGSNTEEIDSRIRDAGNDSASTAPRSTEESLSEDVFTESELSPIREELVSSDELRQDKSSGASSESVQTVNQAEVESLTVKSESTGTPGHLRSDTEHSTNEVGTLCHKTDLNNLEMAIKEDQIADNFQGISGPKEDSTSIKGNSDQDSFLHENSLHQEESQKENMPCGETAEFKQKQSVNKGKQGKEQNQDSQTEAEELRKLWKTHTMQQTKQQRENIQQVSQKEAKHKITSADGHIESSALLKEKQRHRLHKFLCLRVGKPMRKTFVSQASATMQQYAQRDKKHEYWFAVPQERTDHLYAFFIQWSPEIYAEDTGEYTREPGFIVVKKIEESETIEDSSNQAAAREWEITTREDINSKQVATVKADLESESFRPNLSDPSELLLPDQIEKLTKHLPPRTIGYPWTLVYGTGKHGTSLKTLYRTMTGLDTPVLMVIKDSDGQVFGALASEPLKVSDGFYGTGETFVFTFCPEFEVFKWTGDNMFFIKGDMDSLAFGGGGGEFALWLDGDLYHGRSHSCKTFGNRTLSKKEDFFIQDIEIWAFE

B1: TBRE1006 (antibody, V domains shown)
VH: QVQLVQSGAEVKKPGASVKVSCKASGYIFTSYAIHWVRQAPGQRLEWMGWINAGNGNTKYSQKFQGRVTITRDTSANTAYMELSSLRSEDTAIYYCARDIAVAITNYFGSWGQGTLVTVSS
VL: EIVLTQSPATLSLSPGERATLSCRASQSVGSYLAWYQQKPGQAPRLLIYDASNRATGIPARFSGSGSGTDFTLTISSLEPEDFAVYYCQQGSNWLALTFGGGTKVEIKR
notes: VH/VL only
B2: TPRO1001 (antibody, V domains shown)
VH: EVQLVQSGAEVKKPGESLRISCKGSGYSFTSFWISWVRQMPGKGLEWMGRIDPSDSYTNYSPSFQGHVTISADKSISTAFLQWSSLKASDTAMYYCARHQQKYSPISPLDYWGQGTLVTVSS
VL: QSALTQPASVSGSPGQSITISCTGTSSDVGGYNYVSWYQQHPGKAPKLMIYDVSNRPSGVSNRFSGSKSGNTASLTISGLQAEDEADYYCSSYTSSSSLVFGGGTKVTVLG
notes: VH/VL tied via antigen in summary, not by name in this stretch

Legend:
[1] = target: T1, glucuronidase, beta pseudogene; test: protein array
[2] = target: T2, oxidation resistance 1, transcript …; test: protein array

| Binder | binding result [1] | binding result [2] |
| --- | --- | --- |
| B1 | binds |  |
| B2 |  | binds |
